Our source for the Kd values is PMC3220268, “Phosphorylation of the Arp2 Subunit Relieves Auto-inhibitory Interactions for Arp2/3 Complex Activation” (PLoS Computational Biology, 2011).

The target of assay [1] is recombinant Arp2/3 complex with Arp2 T237A, T238A, and Y202A mutations (UniProt P61158 1-418; P61160 1-394; O15143 1-372; O15144 1-300; O15145 1-178; P59998 …, T237A | T238A | Y202A). Nature of the assay: pull-down; GST-NWASP VCA covalently coupled to Activated CH-sepharose 4B; beads added to Arp2/3 complex, room temperature, 30 min; beads spun at 700 x g, Coomassie-stained gels quantified and fitted. Particulars: both partners purified.

Assay [2] addresses recombinant Arp2/3 complex with ARPC4 R105A and R106A mutations (UniProt P61158 1-418; P61160 1-394; O15143 1-372; O15144 1-300; O15145 1-178; P59998 …, R105A | R106A). Described as above. Particulars: both partners purified.

B1: GST-NWASP VCA (domain or fragment)
chain: PSDGDHQVPTTAGNKAALLDQIREGAQLKKVEQNSRPVSCSGRDALLDQIRQGIQLKSVADGQESTPPTPAPTSGIVGALMEVMQKRSKAIHSSDEDEDEDDEEDFEDDDEWED
Turning to B1, the values for the Kd in assay [1] and in assay [2] were 500 nM and 60 nM, respectively.
